T1: AlpZ (Streptomyces ambofaciens, UniProt Q6VMG9 1-237)
T1 sequence: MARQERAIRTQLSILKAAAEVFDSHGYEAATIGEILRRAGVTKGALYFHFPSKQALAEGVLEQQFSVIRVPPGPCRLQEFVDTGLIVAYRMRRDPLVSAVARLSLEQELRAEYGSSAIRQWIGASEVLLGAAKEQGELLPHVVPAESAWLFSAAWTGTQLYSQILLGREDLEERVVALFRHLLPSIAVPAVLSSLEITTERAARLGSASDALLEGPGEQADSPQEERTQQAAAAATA


How the values were obtained:
[1] = target: T1, AlpZ; experiment: switchSENSE; AlpZ 50 nM; kON 1.38e5 M-1 s-1, kOFF 1.05e-4 s-1 (printed rates give 0.76 nM, inconsistent with printed KD); switchSENSE: PE40 pH 7.4 (10 mM Na phosphate, 40 mM NaCl, 0.05% Tween20, 50 uM EDTA, 50 uM EGTA), 30 C; EMSA: 20 mM HEPES pH 7.6, 1 mM EDTA, 10 mM (NH4)2SO4, 1; details: protein: recombinant; chain copies: 2; label: fluorescent nanolever on the switchSENSE chip; 40 bp duplex with 3' overhang 48 nt on strand 1, hybridized to chip nanolever
[2] = target: T1, AlpZ; experiment: switchSENSE; no association observed; switchSENSE: PE40 pH 7.4 (10 mM Na phosphate, 40 mM NaCl, 0.05% Tween20, 50 uM EDTA, 50 uM EGTA), 30 C; EMSA: 20 mM HEPES pH 7.6, 1 mM EDTA, 10 mM (NH4)2SO4, 1; details: protein: recombinant; chain copies: 2; label: fluorescent nanolever on the switchSENSE chip; 40 bp duplex with 3' overhang 48 nt on strand 1, hybridized to chip nanolever

Row | Binder | Kd [1] [nM] | binding result [2]
1 | nanoAREV dsoverhang (dsDNA) DNA 1: CTCACATTGACAAACCGACTGTGCTGTTTTTTTATCAGGGATCAGCGTTCGATGCTTCCGACTAATCAGCCATATCAGCTTACGACTA DNA 2: CCCTGATAAAAAAACAGCACAGTCGGTTTGTCAATGTGAG | 37.1 ± 3.3 | 
2 | nanoControl dsoverhang (dsDNA) DNA 1: GGGGGGTGTGAGAACGGGGTGTTCTGGTGTTTGCGCCGGAATCAGCGTTCGATGCTTCCGACTAATCAGCCATATCAGCTTACGACTA DNA 2: TCCGGCGCAAACACCAGAACACCCCGTTCTCACACCCCCC |  | no binding
